The source of these data is patent US20150322474A1 (UNIVERSITY OF THE UNIVERSITY OF ABERDEEN, published 2015).

Data set [1] deals with T1, VGAGIGFPAYDG peptide substrate.
T1 chain: VGAGIGFPAYDG

For data set [2], the target named is T2, VGAGIGFPAYRG peptide substrate (modified recognition sequence, Asp to Arg).
T2 chain: VGAGIGFPAYRG

Data set [3] addresses T3, VPAPIPFPAYDG peptide (substrate mimic, P8-P4').
T3 peptide: VPAPIPFPAYDG
The experiment in a line: X-ray crystal structure of the complex, 2.63 Å (co-crystallised, then soaked in 7.5 mM peptide).

B1: PatGmacΔ1 (deletion of residues 578-608, the helix-loop-helix insertion motif) (protein)
chain: GEDEIESAGVSASEVESSATKQKVALHPHDLDERIPGLADLHNQTLGDPQITIVIIDGDPDYTLSCFEGAEVSKVFPYWHEPAEPITKDRIVLNDHACHVTSTIVGQEHSPVFGIAPNCRVINMPQDAVIRGNYDDVMSPLNLARAIDLALELGANIIHCAFCRPTQTSEGEEILVQAIKKCQDNNVLIVSPTGNNSNESWCLPAVLPGTLAVGAAKVDGTPCHFSNWGGNNTKEGILAPGEEILGAQPCTEEPVRLTGTSMAAPVMTGISALLMSLQVQQGKPVDAEAVRTALLKTAIPCDPEVVEEPERCLRGFVNIPGAMKVLFGQ
For B1, in data set [1], the Cyclic ion count (%) (M + H = 699) turned out to be 0%, the Linear ion count (%) (M + H = 717) came to 92% and the Unprocessed ion count (%) (M + H = 1123) was found to be 8%.

B2: PatGmac K598D (protein)
chain: GEDEIESAGVSASEVESSATKQKVALHPHDLDERIPGLADLHNQTLGDPQITIVIIDGDPDYTLSCFEGAEVSKVFPYWHEPAEPITPEDYAAFQSIRDQGLKGKEDEEALEAVIPDTKDRIVLNDHACHVTSTIVGQEHSPVFGIAPNCRVINMPQDAVIRGNYDDVMSPLNLARAIDLALELGANIIHCAFCRPTQTSEGEEILVQAIKKCQDNNVLIVSPTGNNSNESWCLPAVLPGTLAVGAAKVDGTPCHFSNWGGNNTKEGILAPGEEILGAQPCTEEPVRLTGTSMAAPVMTGISALLMSLQVQQGKPVDAEAVRTALLKTAIPCDPEVVEEPERCLRGFVNIPGAMKVLFGQ
For B2, the “linear product, LC-MS” value in data set [2] was “PatGmac K598D produced cyclo[VGAGIGFP] with only 8% linear product, at a rate over an order of magnitude faster than wild-type PatGmac with VGAGIGFPAYDG”. Also, in data set [1], the Cyclic ion count (%) (M + H = 699) turned out to be 0%, the Linear ion count (%) (M + H = 717) worked out at 100% and the Unprocessed ion count (%) (M + H = 1123) turned out to be 0%.

B3: PatGmac wild-type (macrocyclase domain of PatG, residues 492-851) (protein)
chain: GEDEIESAGVSASEVESSATKQKVALHPHDLDERIPGLADLHNQTLGDPQITIVIIDGDPDYTLSCFEGAEVSKVFPYWHEPAEPITPEDYAAFQSIRDQGLKGKEKEEALEAVIPDTKDRIVLNDHACHVTSTIVGQEHSPVFGIAPNCRVINMPQDAVIRGNYDDVMSPLNLARAIDLALELGANIIHCAFCRPTQTSEGEEILVQAIKKCQDNNVLIVSPTGNNSNESWCLPAVLPGTLAVGAAKVDGTPCHFSNWGGNNTKEGILAPGEEILGAQPCTEEPVRLTGTSMAAPVMTGISALLMSLQVQQGKPVDAEAVRTALLKTAIPCDPEVVEEPERCLRGFVNIPGAMKVLFGQ
For the molecule B3, in data set [2], the “macrocyclization reaction, LC-MS” value is “reacted extremely slowly with the substrate giving equal amounts of macrocyclized and linear products”. Also, in data set [1], the Cyclic ion count (%) (M + H = 699) came to 100%, the Linear ion count (%) (M + H = 717) came to 0% and the Unprocessed ion count (%) (M + H = 1123) came to 0%.

B4: PatGmacH618A (inactive mutant of the PatG macrocyclase domain) (enzyme)
chain: GEDEIESAGVSASEVESSATKQKVALHPHDLDERIPGLADLHNQTLGDPQITIVIIDGDPDYTLSCFEGAEVSKVFPYWHEPAEPITPEDYAAFQSIRDQGLKGKEKEEALEAVIPDTKDRIVLNDAACHVTSTIVGQEHSPVFGIAPNCRVINMPQDAVIRGNYDDVMSPLNLARAIDLALELGANIIHCAFCRPTQTSEGEEILVQAIKKCQDNNVLIVSPTGNNSNESWCLPAVLPGTLAVGAAKVDGTPCHFSNWGGNNTKEGILAPGEEILGAQPCTEEPVRLTGTSMAAPVMTGISALLMSLQVQQGKPVDAEAVRTALLKTAIPCDPEVVEEPERCLRGFVNIPGAMKVLFGQ
Take B4: in data set [3], the binding result was “binds”.

B5: PatGmac K594D (protein)
chain: GEDEIESAGVSASEVESSATKQKVALHPHDLDERIPGLADLHNQTLGDPQITIVIIDGDPDYTLSCFEGAEVSKVFPYWHEPAEPITPEDYAAFQSIRDQGLDGKEKEEALEAVIPDTKDRIVLNDHACHVTSTIVGQEHSPVFGIAPNCRVINMPQDAVIRGNYDDVMSPLNLARAIDLALELGANIIHCAFCRPTQTSEGEEILVQAIKKCQDNNVLIVSPTGNNSNESWCLPAVLPGTLAVGAAKVDGTPCHFSNWGGNNTKEGILAPGEEILGAQPCTEEPVRLTGTSMAAPVMTGISALLMSLQVQQGKPVDAEAVRTALLKTAIPCDPEVVEEPERCLRGFVNIPGAMKVLFGQ
As to B5, the “macrocyclization reaction, LC-MS” value in data set [2] was “reacted extremely slowly with the substrate giving equal amounts of macrocyclized and linear products”. Also, in data set [1], the Cyclic ion count (%) (M + H = 699) came out at 29%, the Linear ion count (%) (M + H = 717) was 71% and the Unprocessed ion count (%) (M + H = 1123) was 0%.

B6: PatGmac triple mutant R589D K594D K598D (protein)
chain: GEDEIESAGVSASEVESSATKQKVALHPHDLDERIPGLADLHNQTLGDPQITIVIIDGDPDYTLSCFEGAEVSKVFPYWHEPAEPITPEDYAAFQSIDDQGLDGKEDEEALEAVIPDTKDRIVLNDHACHVTSTIVGQEHSPVFGIAPNCRVINMPQDAVIRGNYDDVMSPLNLARAIDLALELGANIIHCAFCRPTQTSEGEEILVQAIKKCQDNNVLIVSPTGNNSNESWCLPAVLPGTLAVGAAKVDGTPCHFSNWGGNNTKEGILAPGEEILGAQPCTEEPVRLTGTSMAAPVMTGISALLMSLQVQQGKPVDAEAVRTALLKTAIPCDPEVVEEPERCLRGFVNIPGAMKVLFGQ
As to B6, the “macrocyclization reaction, LC-MS” value in data set [2] is “reacted extremely slowly with the substrate giving equal amounts of macrocyclized and linear products”. Besides, in data set [1], the Cyclic ion count (%) (M + H = 699) came to 0%, the Linear ion count (%) (M + H = 717) was 6% and the Unprocessed ion count (%) (M + H = 1123) was found to be 94%.

B7: PatGmacΔ2 (deletion of residues 578-614, the helix-loop-helix insertion and the N-terminal extension of α4) (protein)
chain: GEDEIESAGVSASEVESSATKQKVALHPHDLDERIPGLADLHNQTLGDPQITIVIIDGDPDYTLSCFEGAEVSKVFPYWHEPAEPILNDHACHVTSTIVGQEHSPVFGIAPNCRVINMPQDAVIRGNYDDVMSPLNLARAIDLALELGANIIHCAFCRPTQTSEGEEILVQAIKKCQDNNVLIVSPTGNNSNESWCLPAVLPGTLAVGAAKVDGTPCHFSNWGGNNTKEGILAPGEEILGAQPCTEEPVRLTGTSMAAPVMTGISALLMSLQVQQGKPVDAEAVRTALLKTAIPCDPEVVEEPERCLRGFVNIPGAMKVLFGQ
In the case of B7, in data set [1], the Cyclic ion count (%) (M + H = 699) was 0%, the Linear ion count (%) (M + H = 717) is more than 99% and the Unprocessed ion count (%) (M + H = 1123) was less than 1%.
